From patent US20180282690A1, “METHOD AND CULTURE MEDIUM FOR EX VIVO CULTURING OF EPIDERMIS-DERIVED STEM CELLS” (Max-Planck-Gesellschaft zur Förderung der Wissenchaften e.V., priority 2015, published 2018) come the findings set out here.

The assay has as its system CD34^+α6^+ HFSCs. The experiment in a line: 3D-ECM culture of mouse keratinocytes, CD34+α6+ HFSCs quantified by flow cytometry. The class given is cell-based. The settings on record: for percentage of CD34+α6+ HFSCs: vs untreated 3C; for normalized CD34+α6+ content of cultures: day 14 Matrigel; for growth/expansion of CD34+α6+ HFSCs when FGF-2 or VEGF-164 is replaced: in the 3C, YF and/or YV media, compared with FGF-2 / VEGF-164. As for the experimental part: Keratinocytes were isolated from back skin of mice by incubating skin pieces in 0.8% Trypsin (Gibco) for 50 min at 37° C. After separating the epidermis from the underlying dermis, cells were homogenized, filtered through 70 μm and 45 μm cell strainers (BD Biosciences) and pelleted at 900 rpm for 3 min. For 2D culture of epidermis-derived cells, tissue culture petri dished were coated with a mixture of collagen I (30 μg/ml)+fibronectin (10 μg/ml; both from Millipore) in MEM for 1 h at 37° C. prior to plating of cells. Epidermis-derived cells were suspended in KGM or in FAD medium, and seeded on the coated plastic dishes. Medium was exchanged the next day after initial seeding and thereafter every second day. […] For 3D culture of HFSCs, 8×10^4 cells were resuspended in 40 μl ice-cold 1:1 KGM:Matrigel mixture that was dispensed as a droplet in 24-well cell culture dishes. The suspension was allowed to solidify for 15 min after which it was overlaid with 500 μl of stem cell media. The following media compositions were used: KGM basal medium, medium Y (KGM, 5 μM Y27632, 10 ng/ml human recombinant EGF), medium Y-E (KGM, 5 μM Y27632), medium YV (KGM, 5 μM Y27632, 10 ng/ml human recombinant EGF, 20 ng/ml mouse recombinant VEGF), medium YF (KGM, 5 μM Y27632, 10 ng/ml human recombinant EGF, 20 ng/ml human recombinant FGF-2), 3C (KGM, 5 μM Y27632, 10 ng/ml human recombinant EGF, 20 ng/ml mouse recombinant VEGF, 20 ng/ml human recombinant FGF-2), and 3C-E (KGM, 5 μM Y27632, 20 ng/ml mouse recombinant VEGF, 20 ng/ml human recombinant FGF-2).
For cell passaging and flow cytometry cultured hair follicle stem cells were extracted from Matrigel by mechanical homogenization and incubation in 0.5% Trypsin (Gibco), 0.5 mM EDTA, PBS or Accutase (Gibco) for 10 min at 37° C.
Single cell suspensions prepared from murine back skin (described above) or from cultured cells were rinsed once with KGM and stained with fluorescently labeled antibodies for 30 min on ice. After two washes with FACS Buffer (2% FCS, 2 mM EDTA, PBS) cells were measured in a BD FACS Canto II and data was analyzed using FlowJo software version 10. For purification of cell populations (cell sorting) a BD FACS Aria II or a BD FACS Aria Fusion were used. Cells were sorted in KGM medium at 4′C. Expression of cell surface markers was analyzed on live cells after exclusion of cell doublets and dead cells, respectively.

The mark [1] stands for this setting: cyclopamine 10 μM for 5 days added to 3C cultures.
[2] abbreviates: 3C conditions (Y27632+EGF+FGF+VEGF), vs VEGF-164 or FGF-2 set to 1.
[3] abbreviates: YF conditions (Y27632+EGF+FGF), vs FGF-2 set to 1.

In the case of `COc1cc(-c2cc(-c3cccc(O)c3)cnc2N)cc(OC)c1OC` [K02288, 3-[6-amino-5-(3,4,5-trimethoxyphenyl)pyridin-3-yl]phenol, reference compound], the “percentage of CD34+α6+ HFSCs” value (3C conditions 14 days with K02288 10 nM) is on record as “decrease”.
Turning to `C[C@@H](N)[C@H]1CC[C@H](C(=O)Nc2ccncc2)CC1.Cl.Cl.O` [Y27632, (R)-(+)-trans-4-(1-aminoethyl)-N-(4-Pyridyl)cyclohexanecarboxamide dihydrochloride monohydrate, reference compound], for the setting “3C conditions, from the beginning of the culturing time”, the “requirement of ROCK inhibitor for HFSC growth and expansion” value is “essential”.
As for `CC1=C2C[C@H]3[C@@H](CC=C4C[C@@H](O)CC[C@@]43C)[C@@H]2CC[C@]12O[C@@H]1C[C@H](C)CN[C@H]1[C@H]2C` [cyclopamine, (2′R,3S,3′R,3′aS,6'S,6aS,6bS,7′aR,11aS,11bR)-1,2,3,3′a,4,4′,5′,6,6′,6a,6b,7,7′,7′a,8,11,11a,11b-Octadecahydro-3′,6′,10,11b-tetramethylspiro[9H-benzo[a]fluorene-9,2′(3′H)-furo[3,2-b]pyridin]-3-ol, reference compound], the “proportion of HFSCs in the cultured cell mixture” value (3C conditions 9 days, then cyclopamine 10 μM for 5 days, flow cytometry day 14) is recorded as “up to 93.6%”. Also, under setting [1], the total cell numbers entry is given as “decrease” and the “percentage of CD34+α6+ HFSCs” value is on record as “elevated”.

B1: FGF-7: human recombinant FGF-7 (protein, UniProt P21781 32-194, looked up)
Fibroblast growth factor 7: CNDMTPEQMATNVNCSSPERHTRSYDYMEGGDIRVRRLFCRTQWYLRIDKRGKVKGTQEMKNNYNIMEIRTVAVGIVAIKGVESEFYLAMNKEGKLYAKKECNEDCNFKELILENHYNTYASAKWTHNGGEMFVALNQKGIPVRGKKTKKEQKTAHFLPMAIT
As for B1, the “growth/expansion of CD34+α6+ HFSCs when FGF-2 or VEGF-164 is replaced” value (“growth/expansion of CD34+α6+ HFSCs” below) is “Comparable”. In addition, the “normalized CD34+α6+ content of cultures” value under setting [2] is given as “perform equally well”. Under setting [3], the “normalized CD34+α6+ content of cultures” value is “perform equally well”.

B2: FGF-10: human recombinant FGF-10 (protein, UniProt O15520 38-208, looked up)
Fibroblast growth factor 10: QALGQDMVSPEATNSSSSSFSSPSSAGRHVRSYNHLQGDVRWRKLFSFTKYFLKIEKNGKVSGTKKENCPYSILEITSVEIGVVAVKAINSNYYLAMNKKGKLYGSKEFNNDCKLKERIEENGYNTYASFNWQHNGRQMYVALNGKGAPRRGQKTRRKNTSAHFLPMVVHS
Regarding B2, the “growth/expansion of CD34+α6+ HFSCs” value is “Comparable”. Moreover, the “normalized CD34+α6+ content of cultures” value under setting [2] is recorded as “perform equally well”. In addition, the “normalized CD34+α6+ content of cultures” value under setting [3] is given as “perform equally well”.

B3: FGF-18: human recombinant FGF-18 (protein, UniProt O76093 28-207, looked up)
Fibroblast growth factor 18: EENVDFRIHVENQTRARDDVSRKQLRLYQLYSRTSGKHIQVLGRRISARGEDGDKYAQLLVETDTFGSQVRIKGKETEFYLCMNRKGKLVGKPDGTSKECVFIEKVLENNYTALMSAKYSGWYVGFTKKGRPRKGPKTRENQQDVHFMKRYPKGQPELQKPFKYTTVTKRSRRIRPTHPA
As to B3, the “growth/expansion of CD34+α6+ HFSCs” value is “Comparable”.
